We go through four substances from article PMC3308894.

Assay in all cases: other fluorescence titration
The target in experiment [1] is tail-less histone H2A-H2B complex, fluorescently labeled (Xenopus laevis) (UniProt P06897).
Experiment [2] has as its target tri-nucleosome array NLE (nonlinker-ended), 561-bp DNA (Xenopus laevis).
For experiment [3], the target named is an individual nucleosome, whether mono or as part of an array.
In experiment [4] the target is histone H2A-H2B complex, fluorescently labeled (Xenopus laevis) (UniProt P06897).
In experiment [5] the target is 207-bp linker DNA-containing nucleosome (Nuc207) (Xenopus laevis).
In experiment [6] the target is 147-bp nucleosome, which contains no linker DNA (Nuc147) (Xenopus laevis).
Experiment [7] addresses tri-nucleosome array LE (linker-ended), 621-bp DNA (Xenopus laevis).
For experiment [8], the target named is histone H3-H4 complex, fluorescently labeled (Xenopus laevis) (UniProt P84233).

Values joined by “and” are separate entries in the source; they are usually repeats but may differ in a detail not shown here. Equal values may be shown once.

As for “FACT (facilitates chromatin transcription) complex, full-length, de-phosphorylated (from UniProt Q9Y5B9;Q08945)”, in experiment [1], the fold lower affinity than for tail-containing H2A-H2B is 7 fold. The equilibrium dissociation constant (Kd) (in general, the concentration at which binding is half-saturated) turned out to be 36 nM in experiment [2]; 31 nM in experiment [4]; 22 nM in experiment [5]; 64 nM in experiment [6]; 26 nM in experiment [7]. Also, the stoichiometry N (FACT:tri-nucleosome) was found to be 2.4 in experiment [2] and 3.3 in experiment [7]. Besides, the stoichiometry N (FACT molecules per nucleosome) in experiment [3] is 1 and 2.
On to “FACTΔCTD (Spt16 acidic C-terminal domain truncation + SSRP1) (from UniProt Q9Y5B9;Q08945) (complex)”, for which the fold increase of Kd(app) against full-length FACT in experiment [4] stood at 6 fold. In addition, in experiment [5], the fold less affinity than FACT was determined as 20 fold and the fold less affinity than SSRP1 alone was 7 fold. Also, the Kd in experiment [8] was above 1000 nM.
In the case of “SSRP1 (structure-specific recognition protein 1) subunit of FACT (from UniProt Q08945 1-709) (natural protein)”, the Kd in experiment [5] was 67 nM; in experiment [6], above 1000 nM.
On to “Spt16 (Suppressor of ty 16) subunit of FACT (from UniProt Q9Y5B9 1-1047) (natural protein)”, for which, in experiment [4], the Kd was 85 nM.
